Key:
Assay in all cases: holdup assay
Design in all cases: key: below the threshold = too weak to quantify, mostly under pKd 3.1 to 4
[1] = target: MAGI1_2, Q96QZ7
[2] = target: DLG4_2, P78352
[3] = target: PDZRN4_1, Q6ZMN7
[4] = target: SCRIB_3, Q14160
[5] = target: SCRIB_2, Q14160
[6] = target: GRIP2_4, Q9C0E4
[7] = target: T1, SNTB1, Q13884
T1 sequence (Q13884 107-205, limits assumed, looked up): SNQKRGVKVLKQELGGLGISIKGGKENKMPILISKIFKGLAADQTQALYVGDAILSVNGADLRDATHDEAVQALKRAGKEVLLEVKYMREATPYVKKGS

[8] = target: DLG4_3, P78352
DLG4_3, P78352, sequence (P78352 306-403): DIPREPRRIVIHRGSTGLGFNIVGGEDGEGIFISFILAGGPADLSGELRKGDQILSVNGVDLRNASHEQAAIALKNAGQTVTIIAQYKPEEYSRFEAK

[9] = target: Inadl_1, Q8NI35
Inadl_1, Q8NI35, sequence (Q8NI35 113-229): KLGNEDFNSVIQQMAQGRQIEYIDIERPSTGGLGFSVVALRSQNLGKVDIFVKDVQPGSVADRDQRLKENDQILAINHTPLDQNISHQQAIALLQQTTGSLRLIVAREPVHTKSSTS

[10] = target: LNX1_2, Q8TBB1
LNX1_2, Q8TBB1, sequence (Q8TBB1 371-470): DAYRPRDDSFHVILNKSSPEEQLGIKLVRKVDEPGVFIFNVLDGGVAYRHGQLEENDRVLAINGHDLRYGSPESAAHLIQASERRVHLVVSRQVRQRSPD

[11] = target: T2, GRIP1_3, Q9Y3R0
T2 sequence (Q9Y3R0 247-346, limits assumed, looked up): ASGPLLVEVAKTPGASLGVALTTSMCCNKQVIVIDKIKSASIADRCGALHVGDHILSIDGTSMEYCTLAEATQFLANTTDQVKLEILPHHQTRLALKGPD

[12] = target: GORASP1, Q9BQQ3
GORASP1, Q9BQQ3, sequence (Q9BQQ3 1-208): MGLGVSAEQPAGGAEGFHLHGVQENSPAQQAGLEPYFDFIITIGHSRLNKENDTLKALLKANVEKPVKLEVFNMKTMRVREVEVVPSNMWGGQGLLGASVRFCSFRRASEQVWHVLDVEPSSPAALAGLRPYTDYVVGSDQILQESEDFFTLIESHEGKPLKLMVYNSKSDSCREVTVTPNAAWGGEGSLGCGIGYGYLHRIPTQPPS

[13] = target: IL16_4, Q14005
IL16_4, Q14005, sequence (Q14005 1229-1329): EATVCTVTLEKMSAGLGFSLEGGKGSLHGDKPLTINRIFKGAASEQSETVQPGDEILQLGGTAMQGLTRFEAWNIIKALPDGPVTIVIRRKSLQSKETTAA

[14] = target: Inadl_6, Q8NI35
Inadl_6, Q8NI35, sequence (Q8NI35 1058-1167): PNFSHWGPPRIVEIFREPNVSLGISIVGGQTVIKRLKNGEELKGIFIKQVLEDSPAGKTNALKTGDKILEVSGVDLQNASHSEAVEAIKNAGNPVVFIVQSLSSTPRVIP

[15] = target: MAGI2_5, Q86UL8
MAGI2_5, Q86UL8, sequence (Q86UL8 915-1017): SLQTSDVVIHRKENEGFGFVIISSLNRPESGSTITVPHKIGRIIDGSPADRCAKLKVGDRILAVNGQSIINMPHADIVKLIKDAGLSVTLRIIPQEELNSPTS

[16] = target: FRMPD4, Q14CM0
FRMPD4, Q14CM0, sequence (Q14CM0 67-160): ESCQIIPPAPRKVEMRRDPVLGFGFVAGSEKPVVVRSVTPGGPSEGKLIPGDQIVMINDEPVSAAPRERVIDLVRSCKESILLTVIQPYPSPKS

[17] = target: PICK1, Q9NRD5
PICK1, Q9NRD5, sequence (Q9NRD5 17-115): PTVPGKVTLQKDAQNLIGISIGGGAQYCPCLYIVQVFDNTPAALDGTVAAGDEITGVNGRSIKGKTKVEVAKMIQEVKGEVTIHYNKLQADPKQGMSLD

[18] = target: CASK, O14936
CASK, O14936, sequence (O14936 487-570): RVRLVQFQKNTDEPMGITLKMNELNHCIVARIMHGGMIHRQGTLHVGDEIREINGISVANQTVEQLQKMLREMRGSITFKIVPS

[19] = target: MAGI2_6, Q86UL8
MAGI2_6, Q86UL8, sequence (Q86UL8 1141-1229): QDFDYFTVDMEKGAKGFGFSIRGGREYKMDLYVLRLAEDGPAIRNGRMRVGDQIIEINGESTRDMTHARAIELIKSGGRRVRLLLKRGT

[20] = target: FRMPD3, Q5JV73
FRMPD3, Q5JV73, sequence (Q5JV73 12-100): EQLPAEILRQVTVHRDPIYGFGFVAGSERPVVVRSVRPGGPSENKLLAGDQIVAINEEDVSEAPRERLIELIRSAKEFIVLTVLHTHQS

[21] = target: T3, PDZRN3_1, Q9UPQ7
T3 sequence (Q9UPQ7 244-349, limits assumed, looked up): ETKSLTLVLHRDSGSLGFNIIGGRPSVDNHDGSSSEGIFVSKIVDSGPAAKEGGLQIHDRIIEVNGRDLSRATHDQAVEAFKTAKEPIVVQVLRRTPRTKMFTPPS

[22] = target: T4, TX1BP3, O14907
T4 sequence (O14907 10-122, limits assumed, looked up): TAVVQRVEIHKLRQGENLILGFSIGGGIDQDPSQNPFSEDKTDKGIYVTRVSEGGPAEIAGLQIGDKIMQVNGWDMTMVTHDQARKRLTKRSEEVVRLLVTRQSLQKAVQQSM

[23] = target: SNX27, Q96L92
[24] = target: MAGI1_1, Q96QZ7
MAGI1_1, Q96QZ7, sequence (Q96QZ7 1-106): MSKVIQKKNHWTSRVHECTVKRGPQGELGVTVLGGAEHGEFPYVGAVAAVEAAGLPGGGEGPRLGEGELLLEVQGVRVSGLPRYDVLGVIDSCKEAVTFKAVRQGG

[25] = target: LNX1_1, Q8TBB1
LNX1_1, Q8TBB1, sequence (Q8TBB1 261-371): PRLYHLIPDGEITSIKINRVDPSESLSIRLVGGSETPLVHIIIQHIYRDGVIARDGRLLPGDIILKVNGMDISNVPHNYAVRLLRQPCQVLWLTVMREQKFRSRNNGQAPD

[26] = target: GRIP2_7, Q9C0E4
GRIP2_7, Q9C0E4, sequence (Q9C0E4 934-1023): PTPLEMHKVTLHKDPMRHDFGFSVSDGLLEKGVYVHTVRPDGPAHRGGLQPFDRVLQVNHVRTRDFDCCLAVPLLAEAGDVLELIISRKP

[27] = target: T5, APBA2_2, Q99767
T5 sequence (Q99767 654-744, limits assumed, looked up): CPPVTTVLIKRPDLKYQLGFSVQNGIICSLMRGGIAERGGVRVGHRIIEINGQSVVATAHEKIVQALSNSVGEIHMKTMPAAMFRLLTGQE

[28] = target: T6, RADIL, Q96JH8
T6 sequence (Q96JH8 971-1071, limits assumed, looked up): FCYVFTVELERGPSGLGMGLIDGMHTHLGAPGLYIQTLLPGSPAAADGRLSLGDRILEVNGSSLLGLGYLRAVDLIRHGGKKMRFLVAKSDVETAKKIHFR

[29] = target: T7, GRIP1_5, Q9Y3R0
T7 sequence (Q9Y3R0 568-668, limits assumed, looked up): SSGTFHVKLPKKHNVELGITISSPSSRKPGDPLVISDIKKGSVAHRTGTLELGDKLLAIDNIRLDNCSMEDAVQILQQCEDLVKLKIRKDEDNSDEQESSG

[30] = target: LNX1_3, Q8TBB1
LNX1_3, Q8TBB1, sequence (Q8TBB1 500-596): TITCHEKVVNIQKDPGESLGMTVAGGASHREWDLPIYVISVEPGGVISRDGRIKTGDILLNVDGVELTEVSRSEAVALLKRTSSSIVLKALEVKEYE

[31] = plain residues with an end cap or a label only (N-terminal biotin on a linker: ado-ado)
[32] = modified: phospho on T at position -2 from the C-terminal residue

Measured: pKd

SCRIB_3, Q14160, sequence (Q14160 999-1103): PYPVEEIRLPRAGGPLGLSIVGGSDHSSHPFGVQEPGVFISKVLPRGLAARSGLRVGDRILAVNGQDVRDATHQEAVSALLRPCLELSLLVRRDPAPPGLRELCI
GRIP2_4, Q9C0E4, sequence (Q9C0E4 446-548): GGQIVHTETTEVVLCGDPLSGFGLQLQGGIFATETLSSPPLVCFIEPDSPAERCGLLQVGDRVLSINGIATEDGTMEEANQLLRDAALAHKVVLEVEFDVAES
PDZRN4_1, Q6ZMN7, sequence (Q6ZMN7 213-318): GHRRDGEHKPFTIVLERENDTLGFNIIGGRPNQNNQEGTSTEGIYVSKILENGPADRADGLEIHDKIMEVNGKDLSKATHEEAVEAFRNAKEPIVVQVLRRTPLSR
DLG4_2, P78352, sequence (P78352 155-259): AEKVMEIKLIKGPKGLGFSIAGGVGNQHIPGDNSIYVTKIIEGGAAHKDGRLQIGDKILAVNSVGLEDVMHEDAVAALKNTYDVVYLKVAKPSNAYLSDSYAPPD
MAGI1_2, Q96QZ7, sequence (Q96QZ7 456-580): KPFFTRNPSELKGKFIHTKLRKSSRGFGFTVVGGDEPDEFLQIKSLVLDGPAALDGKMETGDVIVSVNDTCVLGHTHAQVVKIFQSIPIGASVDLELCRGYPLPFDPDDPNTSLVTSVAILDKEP
SCRIB_2, Q14160, sequence (Q14160 857-960): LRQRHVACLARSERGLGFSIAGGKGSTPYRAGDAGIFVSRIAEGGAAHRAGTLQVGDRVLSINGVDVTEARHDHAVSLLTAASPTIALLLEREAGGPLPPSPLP

B1: GRIK2, Q13002 (peptide)
chain: RRLPGKETMA
below the threshold: [1]; [31] | [2]; [31] | [3]; [31] | [4]; [31] | [5]; [31] | [6]; [31] | [7]; [31] | [8]; [31] | [9]; [31] | [10]; [31] | [11]; [31] | [12]; [31] | [13]; [31] | [14]; [31] | [15]; [31] | [16]; [31] | [17]; [31] | [18]; [31] | [19]; [31] | [20]; [31] | [21]; [31] | [22]; [31] | [23]; [31] | [24]; [31] | [25]; [31] | [26]; [31] | [27]; [31] | [28]; [31] | [29]; [31] | [30]; [31]

B2: GRIN2C, Q14957 (peptide)
chain: RRISSLESEV
5: [22]; [31]
4.97: [23]; [31]
4.17: [3]; [31]
4.55: [4]; [31]
3.78: [8]; [31]
4.28: [5]; [31]
4.24: [21]; [31]
4.64: [7]; [31]
4.34: [25]; [31]
4.31: [19]; [31]
4.96: [15]; [31]
below the threshold: [6]; [31] | [9]; [31] | [10]; [31] | [11]; [31] | [12]; [31] | [13]; [31] | [14]; [31] | [16]; [31] | [17]; [31] | [18]; [31] | [20]; [31] | [24]; [31] | [26]; [31] | [27]; [31] | [28]; [31] | [29]; [31] | [30]; [31]
5.33: [2]; [31]
4.05: [1]; [31]

B3: HPV35-E6_-2P, P27228 (peptide)
chain: SKPTRRETEV
below the threshold: [1]; [32] | [3]; [32] | [4]; [32] | [5]; [32] | [6]; [32] | [7]; [32] | [8]; [32] | [9]; [32] | [10]; [32] | [11]; [32] | [12]; [32] | [13]; [32] | [14]; [32] | [15]; [32] | [16]; [32] | [17]; [32] | [18]; [32] | [19]; [32] | [20]; [32] | [21]; [32] | [24]; [32] | [25]; [32] | [26]; [32] | [27]; [32] | [28]; [32] | [29]; [32] | [30]; [32]
3.59: [23]; [32]
3.56: [2]; [32]
4.07: [22]; [32]

B4: DGKH, Q86XP1 (peptide)
chain: LGRSTPQSEV
4.01: [25]; [31]
3.92: [2]; [31]
3.8: [4]; [31]
4.03: [7]; [31] | [22]; [31]
below the threshold: [1]; [31] | [3]; [31] | [5]; [31] | [6]; [31] | [8]; [31] | [9]; [31] | [10]; [31] | [11]; [31] | [12]; [31] | [13]; [31] | [14]; [31] | [15]; [31] | [16]; [31] | [17]; [31] | [18]; [31] | [19]; [31] | [20]; [31] | [21]; [31] | [24]; [31] | [26]; [31] | [27]; [31] | [28]; [31] | [29]; [31] | [30]; [31]
3.89: [23]; [31]

B5: DCAF7, P61962 (peptide)
chain: YNNCLEILRV
3.94: [30]; [31]
4.74: [12]; [31]
4.1: [10]; [31]
5.14: [28]; [31]
below the threshold: [1]; [31] | [2]; [31] | [3]; [31] | [4]; [31] | [5]; [31] | [6]; [31] | [7]; [31] | [8]; [31] | [9]; [31] | [11]; [31] | [13]; [31] | [14]; [31] | [15]; [31] | [16]; [31] | [17]; [31] | [18]; [31] | [19]; [31] | [20]; [31] | [21]; [31] | [22]; [31] | [23]; [31] | [24]; [31] | [25]; [31] | [26]; [31] | [27]; [31] | [29]; [31]
